Where a chain is given by its changes, count along the chain named.
Columns and labels:
[1] = target: T1, murine CD39 expressed on CHO cells (murine, UniProt P55772 1-510); assay: flow cytometry titration on CHO cells expressing murine CD39 [panel CHO-moCD39]
T1 construct: whole, on cells; also called CHO-moCD39; mouse CD39
T1 sequence (looked up): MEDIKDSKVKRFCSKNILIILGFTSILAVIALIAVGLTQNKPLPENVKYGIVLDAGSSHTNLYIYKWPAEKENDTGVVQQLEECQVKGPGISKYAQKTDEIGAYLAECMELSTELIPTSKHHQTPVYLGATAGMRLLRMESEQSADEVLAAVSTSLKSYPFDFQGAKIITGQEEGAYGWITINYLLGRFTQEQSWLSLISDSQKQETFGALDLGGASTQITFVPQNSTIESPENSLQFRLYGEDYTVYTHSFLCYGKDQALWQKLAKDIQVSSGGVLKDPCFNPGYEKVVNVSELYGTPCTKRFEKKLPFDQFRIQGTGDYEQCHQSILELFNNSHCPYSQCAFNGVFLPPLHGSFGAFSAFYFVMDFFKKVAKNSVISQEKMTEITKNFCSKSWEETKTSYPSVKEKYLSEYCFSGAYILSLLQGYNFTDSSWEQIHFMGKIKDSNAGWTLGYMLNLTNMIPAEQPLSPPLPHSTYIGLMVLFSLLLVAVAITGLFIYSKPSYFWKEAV
Description: Cells were incubated with various concentration of unlabeled anti-CD39 antibody from 30 μg/ml to 5×10⁻⁴ μg/ml, for 30 minutes at 4° C. After washes, cells were incubated with Goat anti-mouse H+L labeled secondary antibody for 30 min at 4° C.

[2] = target: T2, CD39 mutant 15 (human, UniProt P49961 1-510); assay: flow cytometry on Hek-293T cells transfected with CD39 mutant 15 [panel M15]
T2 construct: Expressed on transfected Hek-293T cells; also called M15
T2 chain: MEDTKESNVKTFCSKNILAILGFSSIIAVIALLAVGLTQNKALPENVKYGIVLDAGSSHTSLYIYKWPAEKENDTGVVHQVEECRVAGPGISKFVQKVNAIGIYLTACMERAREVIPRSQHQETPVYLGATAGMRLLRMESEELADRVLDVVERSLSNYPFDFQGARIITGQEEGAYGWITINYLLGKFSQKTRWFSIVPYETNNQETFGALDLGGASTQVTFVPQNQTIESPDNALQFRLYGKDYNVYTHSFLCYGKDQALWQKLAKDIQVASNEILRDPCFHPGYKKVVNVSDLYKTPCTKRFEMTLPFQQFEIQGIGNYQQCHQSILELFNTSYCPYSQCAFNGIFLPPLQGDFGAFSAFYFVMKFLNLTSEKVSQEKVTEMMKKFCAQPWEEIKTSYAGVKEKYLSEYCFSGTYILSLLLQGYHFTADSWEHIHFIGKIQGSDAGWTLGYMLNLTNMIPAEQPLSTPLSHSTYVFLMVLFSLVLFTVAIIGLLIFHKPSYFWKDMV

[3] = target: T3, human CD39 expressed on cells (human, UniProt P49961 1-510); assay: flow cytometry on Hek-293T cells transfected with wild-type CD39 (unstained cells, US: 10,3) [panel WT]
T3 construct: On CHO transfectants, HEK-293T transfectants (wild type), Ramos lymphoma cells or monocyte-derived dendritic cells, as named under assay; also called huCD39; CHO-huCD39
T3 sequence: T2 chain with A87K, A100E, A107D

B1: antibody I-394 (antibody, human IgG1, kappa, V domains shown)
VH: EVQLQQSGPELVKPGASVKMSCKASGYTFTDYNMHWVKQSHGRTLEWIGYIVPLNGGSTFNQKFKGRATLTVNTSSRTAYMELRSLTSEDSAAYYCARGGTRFAYWGQGTLVTVSA
VL: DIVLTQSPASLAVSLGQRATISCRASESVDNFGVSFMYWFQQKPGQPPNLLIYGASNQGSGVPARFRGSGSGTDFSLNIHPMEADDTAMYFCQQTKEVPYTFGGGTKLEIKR
notes: The hybridoma-derived mouse form was used in early screening
With B1 the binding result [1] was “no binding”, the binding result [2] was “binds” and the “Median : Comp-Alexa Fluor 647-A” value [3] was 3720.

— patent US20190218304A1 (INNATE PHARMA, published 2019)
